Consider two molecules from US20200172618A1 (GENE SIGNAL INTERNATIONAL, published 2020).

For this assay, the target named is T1, Strep-CD9P1-ECD (recombinant soluble human CD9P-1 extracellular domain with Strep tag) (human, UniProt Q9P2B2 22-832).
T1 construct: The limits 22-832 are stated for the recombinant extracellular domain made in CHO cells and used as immunogen; also called recombinant CD9P-1 extracellular domain; not shown: Strep tag; Residue numbers of the construct are 8 higher than those of CD9P-1
T1 sequence: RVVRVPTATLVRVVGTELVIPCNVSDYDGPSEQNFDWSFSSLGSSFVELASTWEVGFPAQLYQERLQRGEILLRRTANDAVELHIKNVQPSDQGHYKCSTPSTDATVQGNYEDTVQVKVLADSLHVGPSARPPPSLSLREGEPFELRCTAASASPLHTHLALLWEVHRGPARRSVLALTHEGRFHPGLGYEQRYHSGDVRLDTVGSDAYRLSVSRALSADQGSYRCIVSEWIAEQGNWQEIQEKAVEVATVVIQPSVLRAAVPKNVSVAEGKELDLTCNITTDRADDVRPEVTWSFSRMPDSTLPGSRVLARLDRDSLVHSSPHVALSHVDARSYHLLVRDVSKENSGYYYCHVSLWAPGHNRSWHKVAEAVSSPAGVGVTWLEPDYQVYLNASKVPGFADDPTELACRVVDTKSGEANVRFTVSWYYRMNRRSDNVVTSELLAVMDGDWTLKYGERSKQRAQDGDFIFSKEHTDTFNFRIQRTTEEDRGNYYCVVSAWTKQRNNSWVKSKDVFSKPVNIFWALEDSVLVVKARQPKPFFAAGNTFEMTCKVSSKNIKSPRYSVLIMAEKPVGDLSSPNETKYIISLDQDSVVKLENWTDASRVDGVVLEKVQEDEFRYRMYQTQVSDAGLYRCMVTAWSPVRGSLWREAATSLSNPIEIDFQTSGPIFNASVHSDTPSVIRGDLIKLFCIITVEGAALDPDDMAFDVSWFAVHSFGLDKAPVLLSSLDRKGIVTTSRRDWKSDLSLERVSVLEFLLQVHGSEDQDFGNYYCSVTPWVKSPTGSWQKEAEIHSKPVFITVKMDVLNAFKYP
The assay can be described thus: SPR; Strep-CD9P1-ECD coated on sensor chip, antibody flowed over. From the text:
Recombinant Strep-CD9P1-ECD was coated on sensor chip and several concentrations of the antibodies were flowed over the chip to obtain binding and dissociation kinetics.
A general note: In SPR one partner is held on a chip, and binding of the other changes the refractive index at the surface.

B1: 9bF4 mAb (mouse anti-human CD9P-1 monoclonal antibody, hybridoma CNCM I-5213) (antibody, V domains shown)
VH: QVQLQQSGAELVKPGTSVKLSCKTSGYTFTSYWIQWIKQRPGQGLGWIGEIFPGTGTTSYHEKFKGKATLTIDTSSSTAYLQLSNLTSEDSAVYFCSRDFDVWGAGTTVTVSS
VL: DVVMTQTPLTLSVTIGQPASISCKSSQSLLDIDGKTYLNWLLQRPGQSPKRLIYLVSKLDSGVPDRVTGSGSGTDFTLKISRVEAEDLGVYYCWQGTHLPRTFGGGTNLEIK
notes: Mouse IgG from a hybridoma, purified on protein G; also called Mouse IgG 9bF4; IgG 9bF4
The Kd is the concentration at which binding is half-saturated. In general, koff refers to a measure of how fast the partners let go of each other. By kon is commonly meant a measure of how fast the partners come together. Regarding B1, the Kd was 90.9 nM, the koff turned out to be 0.00491 s⁻¹ and the kon came to 54100 M⁻¹ s⁻¹.

B2: 10bB1 mAb (mouse anti-human CD9P-1 monoclonal antibody, hybridoma CNCM I-5214) (antibody, V domains shown)
VH: QVQLQQSGAELVKPGTSVKLSCKTSGYTFTSYWIQWIKQRPGQGLGWIGEIFPGTGTTSYHEKFKGKATLTIDTSSSTAYLQLSNLTSEDSAVYFCSRDFDVWGAGTTVTVSS
VL: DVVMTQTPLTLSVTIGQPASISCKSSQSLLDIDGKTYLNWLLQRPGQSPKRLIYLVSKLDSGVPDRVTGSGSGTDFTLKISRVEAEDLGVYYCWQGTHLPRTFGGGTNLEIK
notes: Mouse IgG from a hybridoma; also called IgG 10bB1; 10bB11
Take B2: the Kd was determined as 899 nM, the koff worked out at 0.0118 s⁻¹ and the kon worked out at 13200 M⁻¹ s⁻¹.
